Laboratory results published in patent US20210380699A1 (published 2021).
Blank lines part the entries; values can stand above or below the binder they belong to.

Key:
[1] = target: T1, Human PD-L1 His (human PD-L1 ECD with C-terminal His tag) (human, UniProt Q9NZQ7 19-238); test: SPR 25C, antibody captured, PD-L1 analyte
T1 construct: Biotinylated in ELISA and AlphaScreen assays; also called hPD-L1-his; biotinylated PD-L1 his
Description: Label-free surface plasmon resonance (SPR) analysis was carried out on the ProteOn XPR36 (BioRad) array SPR machine. An anti-human IgG capture surface was created on a GLC biosensor chip using amine coupling of an anti-human IgG from GE Healthcare. […] The assay was carried out at 25° C. using HBS-EP (Teknova H8022). Buffer alone was used to reference the binding sensorgrams. The data was analysed using the 1:1 model inherent to the ProteOn XPR36 analysis software.

[2] = target: T1, Human PD-L1 His (human PD-L1 ECD with …); test: ELISA, biotin-PD-L1 to plate-bound CD80, antibody titrated
Description: (§1) Excess protein was removed by washing with PBS-Tween (0.1% v/v) and the wells were blocked with 1% w/v bovine serum albumin (BSA, Sigma) in PBS for 1 hour at room temperature, after which plates were washed as described previously. 60 μL of a titration (three-fold dilutions from 100 nM) of antibody was added to a 96-well, non-binding plate diluted in ELISA assay buffer (PBS+0.1% BSA). […] The plate was incubated for 30 min before transferring 50 μL to the coated plates.
(§2) The coated plates were incubated for 1 hour at room temperature. Excess protein was removed by washing with PBS-Tween (0.1% v/v). PD-L1 binding was detected using streptavidin labelled Europium (Perkin Elmer) diluted 1/1000 in DELFIA assay buffer (Perkin Elmer). The plates were washed with TBS (Tris buffered saline)-Tween (0.1% v/v) and 50 μL/well of DELFIA Enhancement solution (Perkin Elmer) was added to the plate. The time-resolved fluorescence was measured at 615 nm on an Envision plate reader (PerkinElmer). Percentage specific binding was calculated as defined in Equation 3.

[3] = target: T1, Human PD-L1 His (human PD-L1 ECD with …); test: ELISA, biotin-PD-L1 to plate-bound PD-1, antibody titrated
Description: as §1, §2

[4] = target: T2, Human PD-L1 expressed on cells (human, UniProt Q9NZQ7 19-290); test: cell-based or functional assay
T2 sequence (Q9NZQ7 19-290 limits assumed): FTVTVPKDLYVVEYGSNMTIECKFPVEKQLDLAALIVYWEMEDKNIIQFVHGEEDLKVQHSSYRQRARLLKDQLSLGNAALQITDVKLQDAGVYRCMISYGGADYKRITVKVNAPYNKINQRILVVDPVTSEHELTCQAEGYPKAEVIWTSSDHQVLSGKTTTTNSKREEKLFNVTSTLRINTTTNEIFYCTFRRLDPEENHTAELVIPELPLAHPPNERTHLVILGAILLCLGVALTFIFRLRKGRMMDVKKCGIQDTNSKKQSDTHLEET

[5] = target: T2, Human PD-L1 expressed on cells; test: cell-based or functional assay; remark: listed apart in the source
[6] = target: T2, Human PD-L1 expressed on cells; test: cell-based or functional assay; remark: listed apart in the source
[7] = target: T1, Human PD-L1 His (human PD-L1 ECD with …); test: SPR 37C, antibody captured, PD-L1 analyte
Description: (§3) Label-free surface plasmon resonance (SPR) analysis was carried out on the ProteOn XPR36 (BioRad) array SPR machine. An anti-human IgG capture surface was created on a GLC biosensor chip using a combination of anti-human Fc antibodies (Jackson Labs 09-005-008,109-006-008 and 309-006-008) by amine coupling. […] The data was analysed using the 1:1 model inherent to the ProteOn XPR36 analysis software.
(§4) Label-free surface plasmon resonance (SPR) analysis was performed as per Example 4, except the assay was performed at 37° C.

[8] = target: T3, Cyno PD-L1 FLAG (cynomolgus PD-L1 ECD with FLAG tag) (cynomolgus monkey); test: SPR 37C, antibody captured, PD-L1 analyte
T3 construct: also called cynomolgus monkey PD-L1-FLAG
T3 sequence (chain, as listed by the source limits assumed): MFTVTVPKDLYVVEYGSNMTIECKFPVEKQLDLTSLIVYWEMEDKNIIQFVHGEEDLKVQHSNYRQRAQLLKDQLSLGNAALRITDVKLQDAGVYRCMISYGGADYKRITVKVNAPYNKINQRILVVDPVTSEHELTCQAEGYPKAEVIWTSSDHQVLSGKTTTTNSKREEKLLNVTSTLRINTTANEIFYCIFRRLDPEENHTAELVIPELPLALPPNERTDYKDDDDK
Description: as §3, §4

[9] = target: T1, Human PD-L1 His (human PD-L1 ECD with …); test: ELISA, biotin-PD-L1 to plate-bound PD-1, antibody titrated; remark: listed apart in the source
Description: Excess protein was removed by washing with PBS-Tween (0.1% v/v) and the wells were blocked with 1% w/v bovine serum albumin (BSA, Sigma) in PBS for 1 hour at room temperature, after which plates were washed as described previously. […] The plate was incubated for 30 minutes before transferring 50 μL to the coated plates. The coated plates were incubated for 1 hour at room temperature. Excess protein was removed by washing with PBS-Tween (0.1% v/v). PD-L1 binding was detected using streptavidin labelled Europium (Perkin Elmer) diluted 1/1000 in DELFIA assay buffer (Perkin Elmer). Plates were washed with TBS (Tris buffered saline)-Tween (0.1% v/v) and 50 μL/well of DELFIA Enhancement solution (Perkin Elmer) was added to the plate. Time-resolved fluorescence was measured at 615 nm on an Envision plate reader (PerkinElmer).

[10] = target: T4, PD-L2-Fc (R&D Systems) (UniProt Q9BQ51 20-219, limits assumed); test: DELFIA plate assay, biotinylated antibody on plate-bound PD-L2-Fc
T4 construct: not shown: Fc of the bought protein
T4 sequence (looked up): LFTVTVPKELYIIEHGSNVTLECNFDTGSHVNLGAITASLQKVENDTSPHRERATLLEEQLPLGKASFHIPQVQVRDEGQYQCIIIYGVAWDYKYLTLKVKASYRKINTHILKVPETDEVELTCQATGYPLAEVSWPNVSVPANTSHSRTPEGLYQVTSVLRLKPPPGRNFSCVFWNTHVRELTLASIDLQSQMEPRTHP
Description: Excess protein was removed by washing with PBS-Tween (0.1% v/v) and the wells were blocked with 250 μL/well Pierce Protein Free Blocking Buffer (Thermo, 37572) for 1 hour, after which plates were washed as described previously. […] 100 μL each antibody dilution was added to the plates in duplicate and incubated for 1 hour at room temperature, before washing as stated above. Antibody binding was detected using streptavidin labelled Europium (Perkin Elmer) diluted 1/1000 in DELFIA Assay buffer (Perkin Elmer). Plates were washed with TBS (Tris buffered saline)-Tween (0.1% v/v) and 50 μL/well of DELFIA Enhancement solution (Perkin Elmer) was added to the plate. Time-resolved fluorescence was measured at 615 nm on an Envision plate reader (PerkinElmer).

[11] = target: T2, Human PD-L1 expressed on cells; test: flow cytometry on CHO hPD-L1 cells, competitor biotin-PD-1-Fc
Description: Plates were centrifuged at 300×g for 3 minutes to supernatant aspirated. […] Cells were washed with 150 μL of PBS and centrifuged at 300 g for 3 minutes. Supernatant was aspirated and 150 μL PBS added. This wash step was repeated.

[12] = target: T2, Human PD-L1 expressed on cells; test: flow cytometry on CHO hPD-L1 cells, competitor biotin-CD80-Fc, n = 1
Description: (§5) 150 μL FACS buffer is added and cells washed as described above. […] Cells are incubated at 4° C. for 60 minutes. Cells are washed twice with 150 μL FACS buffer, centrifuging at 300 g for 3 minutes after each wash step and aspirating supernatant. Cells are fixed, washed and resuspended for analysis as above. APC signal intensity (geometric mean) is measured by flow cytometry using a Beckman Coulter CYTOFLEX instrument. Data is plotted as percentage of receptor binding.
(§6) All other steps are performed as per plate 2.

[13] = target: T2, Human PD-L1 expressed on cells; test: flow cytometry on CHO hPD-L1 cells, competitor biotin-CD80-Fc, n = 2
Description: as §5, §6

[14] = target: T2, Human PD-L1 expressed on cells; test: flow cytometry on CHO hPD-L1 cells, competitor biotin-PD-1-Fc, n = 1
Description: as §5

[15] = target: T2, Human PD-L1 expressed on cells; test: flow cytometry on CHO hPD-L1 cells, competitor biotin-PD-1-Fc, n = 2
Description: as §5

T1 sequence (Q9NZQ7 19-238 limits assumed): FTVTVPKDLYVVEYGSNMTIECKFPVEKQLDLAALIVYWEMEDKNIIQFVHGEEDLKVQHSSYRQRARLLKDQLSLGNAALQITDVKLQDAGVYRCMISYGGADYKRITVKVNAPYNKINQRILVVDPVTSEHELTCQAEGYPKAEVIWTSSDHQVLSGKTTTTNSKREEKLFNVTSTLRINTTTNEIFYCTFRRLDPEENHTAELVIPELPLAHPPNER

Kd [1]: 0.171 nM
IC50 [2]: 0.882 nM
IC50 [3]: 1.41 nM
B1: 1D05 (control antibody of Examples 14 and 15, constant region not stated) (antibody, V domains shown)
VH: EVQLVESGGGLVQPGRSLRLSCAASGFTFDDYAMHWVRQVPGKGLEWVSGISWIRTGIGYADSVKGRFTIFRDNAKNSLYLQMNSLRAEDTALYYCAKDMKGSGTYGGWFDTWGQGTLVTVSS
VL: not shown
notes: Unfused 1D05 run beside the immunocytokines; also called wild type antibody

mean EC50, IFNγ induction, monocyte-T cell co-culture [4]: 0.081 nM
EC50, IL-2 induction, murine T cell hybridoma assay, n = 1 [5]: 0.24 nM
EC50, IL-2 induction, murine T cell hybridoma assay, n = 2 [5]: 0.14 nM
EC50, IL-2 induction, murine T cell hybridoma assay, n = 3 [5]: 0.17 nM
EC50, ADCC reporter assay, n = 1 [6]: 0.0249 nM
EC50, ADCC reporter assay, n = 2 [6]: 0.0153 nM
EC50, ADCC reporter assay, n = 3 [6]: 0.0259 nM
Kd [7]: 0.43 nM
Kd [8]: 0.52 nM
IC50 [9]: 7.9 nM
IC50 [11]: 1.82 nM
IC50 [12]: 1.11 nM
IC50 [13]: 1.41 nM
IC50 [14]: 0.89 nM
IC50 [15]: 1.41 nM
B2: 84G09 (human IgG1) (antibody, V domains shown)
VH: EVQLVESGGGLVQPGRSLRLSCAASGFTFDDYAMHWVRQTPGKGLEWVSGISWKSNIIGYADSVKGRFTISRDNAKNSLYLQMNSLRAEDTALYYCARDITGSGSYGWFDPWGQGTLVTVSS
VL: DIQMTQSPSSLSASVGDRVTITCRASQSISSYLNWYQQKPGKAPKPLIYVASSLQSGVPSSFSGSGSGTDFTLTISSLQPEDFATYYCQQSYSNPITFGQGTRLEIKR
notes: also called clone 84609; lead antibody
binding result [10]: no binding (tested: 10 µg/mL top concentration)
